From patent US20010052137A1, “Axin domain-like polypeptide inhibitors of glycogen synthase kinase 3 beta activity and activators of wnt signaling” (Trustees of the University of Pennsylvania, priority 2000, published 2001)

B1: AID: fragment of amino acid residues 489-777 of Xaxin, axin self-interaction domain (protein)
chain: PGTGRHSPKSRSPDGHLSKTLPGSLGTMQTGHGKHSSKSTAKVDSGNLHHHKHVYHHVHHHGGVKPKEQIDGESTQRVQTNFPWNVESHNYATKSRNYAESMGMAPNPMDSLAYSGKVSMLSKRNAKKADLGKSESASHEMPVVPEDSERHQKILQWIMEGEKEIIRHKKSNHSSSSAKKQPPTELARPLSIERPGAVHPWVSAQLRNVVQPSHPFIQDPTMPPNPAPNPLTQLVSKPGARLEEEEKKAAKMPQKQRLKPQKKNVSAPSQPCDNIVVAYYFCGEPIPYR
modifications: left off: large carriers
B2: GID-2/his: His-tagged fusion protein of Xaxin residues 320-429, expressed in E. coli and purified on nickel agarose (protein)
chain: DSEQQSMSSDADTMSLTDSSVDGIPPYRLRKHYRREMQESANANGRGPLPHIPRTYHMPKDIHVDPEKFAAELISRLEGVLRDREAEQKLEERLKRVRAEEEGDDGDVSS
modifications: left off: small tags and cut ends
notes: His-tagged fusion protein of Xaxin residues 320-429, expressed in E. coli and purified on nickel agarose

Columns and labels:
FL Xaxin = target: T1, FL Xaxin (Xenopus laevis, UniProt Q9YGY0); assay: Yeast two hybrid assay, interaction with FL Xaxin; type: binding; conditions: beta-galactosidase filter assay in S. cerevisiae
T1 construct: expressed in transfected cells; host or cells: Saccharomyces cerevisiae
T1 sequence (Q9YGY0 whole entry): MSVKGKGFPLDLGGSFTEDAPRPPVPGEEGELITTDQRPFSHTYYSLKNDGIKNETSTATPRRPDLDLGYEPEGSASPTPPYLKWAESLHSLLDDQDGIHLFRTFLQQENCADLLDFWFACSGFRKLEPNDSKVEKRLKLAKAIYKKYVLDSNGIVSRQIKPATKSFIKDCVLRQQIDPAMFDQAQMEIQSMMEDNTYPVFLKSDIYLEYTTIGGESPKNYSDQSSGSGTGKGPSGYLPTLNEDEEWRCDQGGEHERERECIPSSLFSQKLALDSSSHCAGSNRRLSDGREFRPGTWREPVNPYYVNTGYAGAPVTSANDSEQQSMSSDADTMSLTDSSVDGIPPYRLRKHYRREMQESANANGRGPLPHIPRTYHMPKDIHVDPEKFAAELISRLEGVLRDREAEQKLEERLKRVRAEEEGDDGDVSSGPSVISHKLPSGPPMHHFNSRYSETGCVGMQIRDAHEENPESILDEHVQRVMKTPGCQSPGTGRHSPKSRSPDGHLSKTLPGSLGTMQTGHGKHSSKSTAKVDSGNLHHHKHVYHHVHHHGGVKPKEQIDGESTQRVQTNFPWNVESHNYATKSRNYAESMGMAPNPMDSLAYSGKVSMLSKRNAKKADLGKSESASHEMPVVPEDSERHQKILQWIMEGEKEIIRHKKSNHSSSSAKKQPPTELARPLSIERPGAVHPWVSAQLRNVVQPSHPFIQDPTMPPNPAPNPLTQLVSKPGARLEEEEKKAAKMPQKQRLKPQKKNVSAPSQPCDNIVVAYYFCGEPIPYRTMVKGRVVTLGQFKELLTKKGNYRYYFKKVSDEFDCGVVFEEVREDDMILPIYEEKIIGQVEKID
Excerpt: FL Xaxin was cloned in frame with the GAL4 DNA binding domain (BD) in plasmid pAS2-1 (Clontech) to yield BD plasmid. Expression of BD plasmid yielded a Xaxin-GAL4 fusion protein. FL Xaxin, deltaDIX Xaxin, and a fragment (designated “AID”) encoding amino acid residues 489-777 of Xaxin were cloned in frame with the GAL4 transcriptional activation domain (AD) in the vector pACT2 to yield AD plasmids. Yeast were transformed with BD and AD plasmids using previously described protocols (Clontech, Palo Alto, Calif.). Transformed colonies were selected and assayed for beta-galactosidase activity in order to detect interacting proteins. In addition, three Xenopus axin partial length cDNAs (designated Y2H 2, Y2H 6, Y2H 7; all in plasmid pACT2) isolated from a previous yeast two hybrid screen (Hedgepeth et al., 1999, Mech. Develop. 80:147-151) were analyzed. Purification of GID
Using the yeast two hybrid assay, the ability of axin to bind with itself, with other members of the wnt pathway, or with the G(alpha)q subunit of heterotrimeric G-proteins, was investigated. […]
Saccharomyces cerevisiae cells were transformed with the bait vector and with one of the target vectors. Interaction was assessed using a filter assay to detect beta-galactosidase activity, as described (Fields et al., 1989, Nature 340:245-247; Harper et al., 1993, Cell 75:805-816). […]

GSK-3 beta [1] = assay: In vitro GSK-3 beta activity assay with purified GID-2/his; type: biochemical
Method: In ovo phosphorylation of tau by GSK-3 beta was performed by microinjection of tau protein into oocytes expressing GSK-3 beta and Xaxin constructs. After 90 minutes, oocytes were homogenized and tau phosphorylation was analyzed in western blots using phospho-specific antibodies as described (Hedgepeth et al., 1997, Develop. Biol. 185:82-91). In vitro assays for GSK-3 beta activity were performed as described (Klein et al., 1996, Proc. Natl. Acad. Sci. USA 93:8455-8459). Recombinant GID-2/his protein (described below) was purified by affinity chromatography and added to in vitro assays at selected concentrations.
A cDNA (GID-2) encoding amino acid residues 320-429 of Xaxin was cloned into pET29b (Novagen, Madison, Wis.) in frame with the His-epitope tag. The resulting encoded GID-2/his fusion protein was expressed in BL2I/DE3 cells and purified on nickel agarose according to standard procedures. […]
(§1) GSK-3 beta (25 nanomolar) was incubated with GID-2/his (up to 200-fold molar excess), and each mixture was assayed to detect either protein kinase activity or, in parallel, protein-protein interaction. Interaction between GSK-3 beta and GID-2/his was detected by purification on nickel agarose followed by immunoblotting with GSK-3 beta-specific antibodies. […]

GSK-3 beta [2] = assay: In vitro binding of GSK-3 beta to GID-2/his on nickel agarose; conditions: 25 nanomolar GSK-3 beta
Method: A cDNA (GID-2) encoding amino acid residues 320-429 of Xaxin was cloned into pET29b (Novagen, Madison, Wis.) in frame with the His-epitope tag. The resulting encoded GID-2/his fusion protein was expressed in BL2I/DE3 cells and purified on nickel agarose according to standard procedures. Purified GID-2/his was added to a reaction cocktail having a final volume of 20 microliters and containing 25 nanomolar recombinantly-generated GSK-3 beta in GSK-3 assay buffer, as described (Klein et al., 1996, Proc. Natl. Acad. Sci. USA 93:8455-8459). This reaction mixture was incubated at 0° C. for one hour. After this incubation period, half of the mixture was assayed for GSK-3 beta activity, and the other half was incubated with nickel-agarose at 4° C. for one hour with rotation. The agarose was washed three times using PBS, and then Laemmli sample buffer was added. The samples were boiled for five minutes and then subjected to immunoblotting using anti-GSK-3 beta antibody.
as §1

Row | Molecule | interaction with FL Xaxin (self-interaction) (FL Xaxin) | GSK-3 beta mediated phosphorylation of the GS-2 peptide (GSK-3 beta [1]; 25 nanomolar GSK-3 beta, GID-2/his up to 200-fold molar excess) | phosphorylation of tau by GSK-3 beta in vitro (GSK-3 beta [1]; GID-2/his at a 200-fold molar excess) | binding of GSK-3 beta (nickel agarose, immunoblot) (GSK-3 beta [2])
1 | B1 | sufficient to mediate axin self-interaction |  |  | 
2 | B2 |  | no significant effect | did not inhibit | bound specifically
